US20210393776A1 (FABION PHARMACEUTICALS, published 2021)
Where two headings read alike, the source gives them in different places.

Assays:
[1] = molecular target: T1, recombinant cyno CD3epsilon/delta Fc(K-H) heterodimer (cynomolgus); assay: ELISA, immobilised antigen, biotinylated protein, streptavidin-HRP, ABTS, OD405
T1 construct: also called cynomolgus CD3epsilon/delta; recombinant cyno CD3epsilon/delta heterodimeric Fc protein; copies: 1 + 1
Experimental: (§1) MAXISORP® plates were used for ELISA binding assays. 50 μl of 1 μg/ml of antigens in 50 mM NaHCO₃were used to coat the plates at 4° C. overnight followed by incubation with 200 μl of 5% dry milk/TBS-0.05% TWEEN®-20 (i.e., polysorbate 20) (MTBS-T)/well. Antibodies were usually diluted in 5% MTBS-T and transferred to antigen coated plates and incubated for 1 hr with gentle shaking at room temperature. Bound antibodies were detected either by streptavidin-HRP (for detecting biotinylated antibodies) or anti-his tag-HRP conjugate (for his tagged antibodies). ABTS™ (i.e., 2,2′-azino-bis(3-ethylbenzothiazoline-6-sulphonic acid) solution in 50 mM citrate buffer was used for detection with OD405 measurement on using a microplate reader (Biotek).

[2] = molecular target: T2, human CD3epsilonAA1-27.Fc (human); assay: as above
T2 construct: also called recombinant human CD3epsilon N-terminal peptide (aa1-27.Fc fusion); CD3epsilon N-terminal amino acid 1-27 peptide Fc fusion
Experimental: as §1

[3] = molecular target: T1, recombinant cyno CD3epsilon/delta …; assay: as above; remark: listed apart in the source
[4] = molecular target: T2, human CD3epsilonAA1-27.Fc; assay: as above; remark: listed apart in the source
[5] = molecular target: T3, full length human EpCAM on CHO cells (human, UniProt P16422 24-314); assay: flow cytometry on CHO cells stably expressing full length human EpCAM, PE detection
T3 construct: CHO cells stably expressing full length human EpCAM; also called hu-EpCAM-FL; human EpCAM-FL
T3 sequence: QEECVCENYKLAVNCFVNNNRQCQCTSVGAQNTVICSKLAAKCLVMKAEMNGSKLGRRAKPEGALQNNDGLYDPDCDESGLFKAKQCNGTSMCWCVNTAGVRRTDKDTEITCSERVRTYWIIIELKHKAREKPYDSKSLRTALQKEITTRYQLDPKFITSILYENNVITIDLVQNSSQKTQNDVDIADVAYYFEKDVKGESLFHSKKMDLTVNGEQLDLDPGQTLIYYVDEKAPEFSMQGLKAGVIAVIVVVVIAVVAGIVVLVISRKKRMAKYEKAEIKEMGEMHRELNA
Experimental: (§2) In general, cells were blocked in 1% BSA/PBS for 1 hr at 4 C and antibodies of interest were diluted into 1% BSA/PBS were added to blocked cells for incubation at 4° C. for 1 hr. after one wash with 1% BSA/PBS, staining procedures vary depending on the availability of antibodies or fluorescent antibody conjugate. In some case, direct fluorescence conjugates were used. In other cases, anti affinity tag antibodies (secondary antibody) were used to incubate with the cells followed by anti-species antibody conjugated with a particular fluorophore. In some other experiments, antibody (or other affinity reagent such as streptavidin) with fluorescence conjugate was used directly as secondary antibody (secondary reagent).

[6] = molecular target: T1, recombinant cyno CD3epsilon/delta …; assay: ELISA, immobilised antigen, biotinylated protein, streptavidin-HRP, ABTS, OD405; remark: listed apart in the source
[7] = molecular target: T2, human CD3epsilonAA1-27.Fc; assay: as above; remark: listed apart in the source
[8] = molecular target: T3, full length human EpCAM on CHO cells; assay: flow cytometry on CHO cells stably expressing full length human EpCAM, PE detection; remark: listed apart in the source
Experimental: as §2

[9] = molecular target: T1, recombinant cyno CD3epsilon/delta …; assay: ELISA, immobilised antigen, biotinylated protein, streptavidin-HRP, ABTS, OD405; remark: listed apart in the source
[10] = molecular target: T2, human CD3epsilonAA1-27.Fc; assay: as above; remark: listed apart in the source
[11] = molecular target: T3, full length human EpCAM on CHO cells; assay: flow cytometry on CHO cells stably expressing full length human EpCAM, PE detection; remark: listed apart in the source
Experimental: as §2

Binder | binding result [3] | binding result [4] | binding result [5] | binding result [6] | binding result [7] | binding result [8] | other results
EpCAM2.2-(H+L)-hu-1F3.1 MSFP (bispecific antibody, (H + L) format has a GlyArgAla linker on both chains; His tag at the C-terminus of the Fd; also called double fusion of EpCAM2.2 scFv to both the HC and LC of hu-1F3.1 Fab) heavy: QVQLQESGPGLVKPSETLTLTCSVSGGSISGYYWSWIRQPPGMGLEWIGSVHHSGSTSYNPSLKSRVTISVDTSKNQFSLKLNSVTAADTAVYYCARYRGSGLDYWGQGTLVTVSSGGGGSGGGGSGGGGSQSVLTQPPSVSAAPGQKVTISCSGDSSNIGKNYVSWYQQLPGTAPKLLIYENNERPSGVPDRFSGSKSGTSATLGITGLQTGDEADYYCAAWDTSLSARVFGGGTKVTVLGRAEVQLVESGGGLVQPGGSLRLSCAASGFTFSTYAMNWVRQAPGKGLEWVSRIRSKYNNYATYYADSVKDRFTISRDDSKNTLYLQMNSLRAEDTAVYYCARHGNFGNSYVSWFAYWGQGTMVTVSSASTKGPSVFPLAPCSRSTSESTAALGCLVKDYFPEPVTVSWNSGALTSGVHTFPAVLQSSGLYSLSSVVTVPSSNFGTQTYTCNVDHKPSNTKVDKTVGGGGSHHHHHHH light: QVQLQESGPGLVKPSETLTLTCSVSGGSISGYYWSWIRQPPGMGLEWIGSVHHSGSTSYNPSLKSRVTISVDTSKNQFSLKLNSVTAADTAVYYCARYRGSGLDYWGQGTLVTVSSGGGGSGGGGSGGGGSQSVLTQPPSVSAAPGQKVTISCSGDSSNIGKNYVSWYQQLPGTAPKLLIYENNERPSGVPDRFSGSKSGTSATLGITGLQTGDEADYYCAAWDTSLSARVFGGGTKVTVLGRAQAVVTQEPSLTVSPGGTVTLTCRSSTGAVTTSNYANWVQQKPGQAPRGLIGGTNKRAPGTPARFSGSLLGGKAALTLSGVQPEDEAEYYCALWYSNLWVFGGGTKLTVLGQPKAAPSVTLFPPSSEELQANKATLVCLISDFYPGAVTVAWKADSSPVKAGVETTTPSKQSNNKYAASSYLSLTPEQWKSHRSYSCQVTHEGSTVEKTVAPTECS |  |  |  |  |  |  | EC50 (read off the curve) [1]: ~3 nM; EC50 (read off the curve) [2]: ~3 nM
EpCAM1.1-(L)-hu-1F3.1 Fab (bispecific antibody, member of group m19; also called EpCAM1.1-(L)-hu-1F3 Fab) heavy chain Fd (VH-CH1), unfused: EVQLVESGGGLVQPGGSLRLSCAASGFTFSTYAMNWVRQAPGKGLEWVSRIRSKYNNYATYYADSVKDRFTISRDDSKNTLYLQMNSLRAEDTAVYYCARHGNFGNSYVSWFAYWGQGTMVTVSSASTKGPSVFPLAPCSRSTSESTAALGCLVKDYFPEPVTVSWNSGALTSGVHTFPAVLQSSGLYSLSSVVTVPSSNFGTQTYTCNVDHKPSNTKVDKTVGGGGSHHHHHHH light chain with anti-EpCAM scFv EpCAM1.1 at the N-terminus: QVQLQQSGGGLVQPGGSLRLSCAASGFTFSNYWMSWVRQAPGKGLEWVANIKQDGSEKFYVDSVKGRFTISRDNAKNSLYLQMNSLRAEDMAVYYCARVGGAWELGYWGQGTLVTVSAGGGGSGGGGSGGGGSGAQSVLTQPPSVSGAPGQRVTISCTGSSSNIGSYYGVHWYQQIPGTAPKLLIYSDTNRPSGVPDRFSGSKSGTSASLAITGLQAEDEADYYCQSYDSSLSGRVFGGGTKVTVLGRAQAVVTQEPSLTVSPGGTVTLTCRSSTGAVTTSNYANWVQQKPGQAPRGLIGGTNKRAPGTPARFSGSLLGGKAALTLSGVQPEDEAEYYCALWYSNLWVFGGGTKLTVLGQPKAAPSVTLFPPSSEELQANKATLVCLISDFYPGAVTVAWKADSSPVKAGVETTTPSKQSNNKYAASSYLSLTPEQWKSHRSYSCQVTHEGSTVEKTVAPTECS | binds | binds | binds |  |  |  | 
EpCAM1.1-(H+L)-hu-1F3.1 Fab (bispecific antibody, member of group m19; also called EpCAM1.1-(H+L)-hu-1F3 Fab) heavy chain Fd with anti-EpCAM scFv EpCAM1.1 at the N-terminus: QVQLQQSGGGLVQPGGSLRLSCAASGFTFSNYWMSWVRQAPGKGLEWVANIKQDGSEKFYVDSVKGRFTISRDNAKNSLYLQMNSLRAEDMAVYYCARVGGAWELGYWGQGTLVTVSAGGGGSGGGGSGGGGSGAQSVLTQPPSVSGAPGQRVTISCTGSSSNIGSYYGVHWYQQIPGTAPKLLIYSDTNRPSGVPDRFSGSKSGTSASLAITGLQAEDEADYYCQSYDSSLSGRVFGGGTKVTVLGRAEVQLVESGGGLVQPGGSLRLSCAASGFTFSTYAMNWVRQAPGKGLEWVSRIRSKYNNYATYYADSVKDRFTISRDDSKNTLYLQMNSLRAEDTAVYYCARHGNFGNSYVSWFAYWGQGTMVTVSSASTKGPSVFPLAPCSRSTSESTAALGCLVKDYFPEPVTVSWNSGALTSGVHTFPAVLQSSGLYSLSSVVTVPSSNFGTQTYTCNVDHKPSNTKVDKTVGGGGSHHHHHHH light chain with anti-EpCAM scFv EpCAM1.1 at the N-terminus: QVQLQQSGGGLVQPGGSLRLSCAASGFTFSNYWMSWVRQAPGKGLEWVANIKQDGSEKFYVDSVKGRFTISRDNAKNSLYLQMNSLRAEDMAVYYCARVGGAWELGYWGQGTLVTVSAGGGGSGGGGSGGGGSGAQSVLTQPPSVSGAPGQRVTISCTGSSSNIGSYYGVHWYQQIPGTAPKLLIYSDTNRPSGVPDRFSGSKSGTSASLAITGLQAEDEADYYCQSYDSSLSGRVFGGGTKVTVLGRAQAVVTQEPSLTVSPGGTVTLTCRSSTGAVTTSNYANWVQQKPGQAPRGLIGGTNKRAPGTPARFSGSLLGGKAALTLSGVQPEDEAEYYCALWYSNLWVFGGGTKLTVLGQPKAAPSVTLFPPSSEELQANKATLVCLISDFYPGAVTVAWKADSSPVKAGVETTTPSKQSNNKYAASSYLSLTPEQWKSHRSYSCQVTHEGSTVEKTVAPTECS | binds | binds | binds |  |  |  | 
EpCAM1.2-(H+L)-hu-1F3.1 Fab (bispecific antibody, member of group m20; also called EpCAM1.2-(H+L)-hu-1F3 Fab) heavy chain Fd with anti-EpCAM scFv EpCAM1.2 at the N-terminus: EVQLVESGGGLVQPGGSLRLSCAASGFTFSNYWMSWVRQAPGKGLEWVANIKQDGSEKFYVDSVKGRFTISRDNAKNSLYLQMNSLRAEDMAVYYCARVGGAWELGYWGQGTLVTVSAGGGGSGGGGSGGGGSGAQSVLTQPPSVSGAPGQRVTISCTGSSSNIGSYYGVHWYQQLPGTAPKLLIYSDTNRPSGVPDRFSGSKSGTSASLAITGLQAEDEADYYCQSYDSSLSGRVFGGGTKMTVLGRAEVQLVESGGGLVQPGGSLRLSCAASGFTFSTYAMNWVRQAPGKGLEWVSRIRSKYNNYATYYADSVKDRFTISRDDSKNTLYLQMNSLRAEDTAVYYCARHGNFGNSYVSWFAYWGQGTMVTVSSASTKGPSVFPLAPCSRSTSESTAALGCLVKDYFPEPVTVSWNSGALTSGVHTFPAVLQSSGLYSLSSVVTVPSSNFGTQTYTCNVDHKPSNTKVDKTVGGGGSHHHHHHH light chain with anti-EpCAM scFv EpCAM1.2 at the N-terminus: EVQLVESGGGLVQPGGSLRLSCAASGFTFSNYWMSWVRQAPGKGLEWVANIKQDGSEKFYVDSVKGRFTISRDNAKNSLYLQMNSLRAEDMAVYYCARVGGAWELGYWGQGTLVTVSAGGGGSGGGGSGGGGSGAQSVLTQPPSVSGAPGQRVTISCTGSSSNIGSYYGVHWYQQLPGTAPKLLIYSDTNRPSGVPDRFSGSKSGTSASLAITGLQAEDEADYYCQSYDSSLSGRVFGGGTKLTVLGRAQAVVTQEPSLTVSPGGTVTLTCRSSTGAVTTSNYANWVQQKPGQAPRGLIGGTNKRAPGTPARFSGSLLGGKAALTLSGVQPEDEAEYYCALWYSNLWVFGGGTKLTVLGQPKAAPSVTLFPPSSEELQANKATLVCLISDFYPGAVTVAWKADSSPVKAGVETTTPSKQSNNKYAASSYLSLTPEQWKSHRSYSCQVTHEGSTVEKTVAPTECS |  |  |  | binds | binds | binds | 
EpCAM1.2-(H)-hu-1F3.1 Fab (bispecific antibody, member of group m20; also called EpCAM1.2-(H)-hu-1F3 Fab) heavy chain Fd with anti-EpCAM scFv EpCAM1.2 at the N-terminus: EVQLVESGGGLVQPGGSLRLSCAASGFTFSNYWMSWVRQAPGKGLEWVANIKQDGSEKFYVDSVKGRFTISRDNAKNSLYLQMNSLRAEDMAVYYCARVGGAWELGYWGQGTLVTVSAGGGGSGGGGSGGGGSGAQSVLTQPPSVSGAPGQRVTISCTGSSSNIGSYYGVHWYQQLPGTAPKLLIYSDTNRPSGVPDRFSGSKSGTSASLAITGLQAEDEADYYCQSYDSSLSGRVFGGGTKMTVLGRAEVQLVESGGGLVQPGGSLRLSCAASGFTFSTYAMNWVRQAPGKGLEWVSRIRSKYNNYATYYADSVKDRFTISRDDSKNTLYLQMNSLRAEDTAVYYCARHGNFGNSYVSWFAYWGQGTMVTVSSASTKGPSVFPLAPCSRSTSESTAALGCLVKDYFPEPVTVSWNSGALTSGVHTFPAVLQSSGLYSLSSVVTVPSSNFGTQTYTCNVDHKPSNTKVDKTVGGGGSHHHHHHH light chain, unfused: QAVVTQEPSLTVSPGGTVTLTCRSSTGAVTTSNYANWVQQKPGQAPRGLIGGTNKRAPGTPARFSGSLLGGKAALTLSGVQPEDEAEYYCALWYSNLWVFGGGTKLTVLGQPKAAPSVTLFPPSSEELQANKATLVCLISDFYPGAVTVAWKADSSPVKAGVETTTPSKQSNNKYAASSYLSLTPEQWKSHRSYSCQVTHEGSTVEKTVAPTECS |  |  |  | binds | binds | binds | 
OKT3 Fab (Fab, V domains shown, Anti-CD3 Fab; biotinylated in the assays) VH: not shown VL: QIVLTQSPAIMSASPGEKVTMTCSASSSVSYMNWYQQKSGTSPKRWIYDTSKLASGVPAHFRGSGSGTSYSLTISGMEAEDAATYYCQQWSSNPFTFGSGTKLEINR |  |  |  |  |  |  | binding result [9]: no binding (tested: about 80 nM (last point; axis to 100 nM)); binding result [10]: no binding (tested: about 80 nM (last point; axis to 100 nM)); binding result [11]: no binding
